Legend:
[1] = target: T1, Recombinant AR-LBD (human, UniProt P10275 672-920); experiment: SPR
T1 sequence (looked up): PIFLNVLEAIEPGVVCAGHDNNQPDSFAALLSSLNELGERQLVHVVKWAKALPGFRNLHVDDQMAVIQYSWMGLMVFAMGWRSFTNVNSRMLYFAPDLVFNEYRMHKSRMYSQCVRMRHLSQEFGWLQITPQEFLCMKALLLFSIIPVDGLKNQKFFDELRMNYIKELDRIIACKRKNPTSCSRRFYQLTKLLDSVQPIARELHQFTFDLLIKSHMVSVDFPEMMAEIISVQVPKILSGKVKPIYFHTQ

[2] = target: T2, Recombinant ERα-LBD (human, UniProt P03372 302-595); experiment: SPR
T2 sequence (looked up): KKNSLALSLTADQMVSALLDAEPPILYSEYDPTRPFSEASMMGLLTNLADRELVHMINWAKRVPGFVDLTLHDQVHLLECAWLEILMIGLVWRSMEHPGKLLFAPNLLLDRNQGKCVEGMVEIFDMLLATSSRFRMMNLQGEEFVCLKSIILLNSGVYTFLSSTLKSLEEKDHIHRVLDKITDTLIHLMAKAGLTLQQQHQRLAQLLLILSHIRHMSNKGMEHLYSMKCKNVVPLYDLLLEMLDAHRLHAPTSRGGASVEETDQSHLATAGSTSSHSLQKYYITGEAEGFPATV

KPEWPAAELLLSLLGRLLVHQFSNKSTE [human NIPBL-C2^WT peptide]
binding result [1]: binds | binding result [2]: binds

— publication PMC11661173 (bioRxiv, 2025)
